First the molecules themselves.
B1: HAV HM175 (nucleic acid)
DNA: CGCCGTTTGCCTAGGCTATAGGCTAAATTTTCCCTTTCCCTTTTCCCTTTCCTATTCCCTTTGTTTTGCTTGTAAATATTGATTTGTAAATATTGATTCCTGCAGGTTCAGGGTTCTTAAATCTGTTTCTCTATAAGAACACTCATTTCACGCTTTCTGTCTTCTTTCTTCCAGGGCTCTCCCCTTGCCCTAGGCTCTGGCCGTTGCGCCCGGCGGGGTCAACTCCATGATTAGCATGGAGCTGTAGGAGTCTAAATTGGGGACACAGATGTTTGGAACGTCACCTTGCAGTGTTAACTTGGCTTTCATGAATCTCTTTGATCTTCCACAAGGGGTAGGCTACGGGTGAAACCTCTTAGGCTAATACTTCTATGAAGAGATGCCTTGGATAGGGTAACAGCGGCGGATATTGGTGAGTTGTTAAGACAAAAACCATTCAACGCCGGAGGACTGACTCTCATCCAGTGGATGCATTGAGTGGATTGACTGTCGGGGCTGTCTTTAGGCTTAATTCCAGACCTCTCTGTGCTTGGGGCAAACATCATTTGGCCTTAAATGGGATTCTGTGAGAGGGGATCCCTCCATTGCCAGCTGGACTGTTCTTTGGGGCCTTATGTGGTGTTTGCCGCTGAGGTACTCAGGGGCATTTAGGTTTTTCCTCATTCTTAAATAATA
modifications: Hepatovirus A
B2: HAV FH1 (nucleic acid)
DNA: CTTGATACCTCACCGCCGTTTGCCTAGGCTATAGGCTAAATTTCCCTTTCCCTGTCCTTTCCCTATTTCCTTTTGTTTTGTTTGTAAATATTAATTCCTGCAGGTTCAGGGTTCTTTAATCTGTTTCTCTATAAGAACACTCAATTTTCACGCTTTCTGTCTCCTTTCTTCCAGGGCTCTCCCCTTGCCCTAGGCTCTGGCCGTTGCGCCCGGCGGGGTCAACTCCATGATTAGCATGGAGCTGTAGGAGTCTAAATTGGGGACGCAGATGTTTGGGACGTCGCCTTGCAGTGTTAACTTGGCTTTCATGAACCTCTTTGATCTTCCACAAGGGGTAGGCTACGGGTGAAACCTCTTAGGCTAATACTTCTATGAAGAGATGCCTTGGATAGGGTAACAGCGGCGGATATTGGTGAGTTGTTAAGACAAAAACCATTCAACGCCGAAGGACTGGCTCTCATCCAGTGGATGCATTGAGGGAATTGATTGTCAGGGCTGTCTCTAGGTTTAATCTCAGACCTCTCTGTGCTTAGGGCAAACACTATTTGGCCTTAAATGGGATCCTGTGAGAGGGGGTCCCTCCATTGACAGCTGGACTGTTCTTTGGGGCCTTATGTGGTGTTTGCCTCTGAGGTACTCAGGGGCATTTAGGTTTTTCCTCATTCTTAAACAATA
modifications: Hepatovirus A
B3: Kunsagivirus B (nucleic acid)
DNA: GATTTTCTGGTTATCCCTTTTGGACTTGGTAGGGGCCCACGTGCCCACCCACCTCTGTGTGTGTTGATTTCTAATCGATGCCTGGCAGTGGCGGCCACCTCTCCTTACTGGTAAACCTCCGGTGAGTGAAGTTGTCAAGCTACAGGTACCGTGCAGGATGAAATGCGCACATGTGAACAAACTAGGAGTCATACACCGGGTCAAACTCTGGAAACGGAGTCCGGGACTCTGACCTTGGTTGGGTGAGCTCGAGGCATCACATTGATGGACGCGATTCGCTATCCTTCCCTAGTAGGACCTTGTGGTGTACCCCTGGTTGGGAATCCAGGGCTGGTCGGGTGCAGGGTGACAGCCTGTTCTCCACCTCAACCATTGTAGGAGAAATCAACCCCT
modifications: Kunsagivirus B
B4: Limnipivirus C (nucleic acid)
DNA: GTTTCTGAGCACTGGTAAGAGCTTAGACAAACGTTTTTAAAATTTATTTTCTCTGCAACTTTTGTTTGTGTTTATTTTTATTTGTTAATTTTGCGCCTAAGCATTTGTTGCGAAGTATTTGATTCATTAGTAATATTACTTATTGTTTATTTAGATGGTATTCAAAGTGGTGGGAGTATCGAACCCAAGCGTCGTATGCTATCTCCTTGAACAATTTTTAATCATTGCGAAGTGATCATTGAAAAGGATAGGTGTTTAAGAACTCAAAGAGTGTTAATAATGTTGGGTGACAGGTGTCCCCATAGAATTTATTAACATGATTTGGACTGGTTATCTAGTAAGAAGAACCATCGAACGCACGAGCGAGCATTGCTTGCGGGGCAGTTACCCTGCGTCGATGTAAGTGTGTACCGGGGGGTGCACATGTTGATTCTTTATGGCCTGATAGGGTGCGTCATTCGCGCCTAGATAATTAGTATAATGCGAATGGAATAAATTTAC
modifications: Limnipivirus C
B5: Halastavi arva (1x mut) (nucleic acid)
DNA: CTTGATTCTAACCTTGCCGTATGGTGCCCTAACGGGTTCATTTAATCATGCGATGAGGGTTGCTATACCGCATCCATTCTAAGGCGATTCAATGCTTCATTTAGGAATTTTGTTGACGATTAAAAGGTACCCCCACAAAAACAAAACCAATCTTACTTGATTTTCGTTTTAACTGACCACTGCGATCCCAAATTTTCGCCTTCTTATCAAAGTATGTTGTGTTCTTTGGGTGTACAACCTGAGAACTTGTCTACAACTACATATTACTCGAGGAAGAAATTCGGTTTAAGCCGTGCCTTCTCACGTTTAGTATATCTATCTGGACACACCTTCTTCATCTTCTAATCCCCATCTAGTCTCCTGATCAGAGACGTCGTTATTAACAAATAACCCCCCTTGTTAATAAGAGACAAAGTACAATCAAGCTAAGTTCTCTTGGAGTTCCTGTAGGAACTTAGCCATTGTGATAGAGTCATAAGTCTATGTGCATAGACAGCTCTAGCTCACCATTTCCTTCCCAACCCATCTTTTCATCAGCTTAACTCTATGAATCCGATGCAAAAACCATTCTAACATCTTATGGTGCTTTCCAAGCCAAATGAGAGCTCACTCTTTTGAGCCGCTATTTAATGGACAATAAACGTTTTATAGTGTACATCATATTGTAAAAACAAA
B6: Parechovirus F (nucleic acid)
DNA: GGTCGGGGAGATGTGTTCATGATCGGTTAACACCATCATGGATCATCTCTCCCCGACCTCTTTTTGACCCAGCTATGGGTTAAATAGTACTTTTCTTTTCTCTTTTGCTTTCTTTTGTGTTTTGTTTGTTTTGCAACATATAACAAGCATTTTATCAGTATTAGTGTCTGCAACTGTATAACAAGCAAGGTGGAGCAATCATGCGAGTATATCTCAATTGAATTGTGACACACAAGTGTGCACTATGTGGAATAAATGCCATTTTGGCCAAACCTGGTTAGCCAGACCAGTAGTAGGACAATTTGGCACCCTTAGTGGGCGCGACCTAGATGCTAGGGATGAGCAAACCTATTTCCCCTGAGTACAGGGGCTCTCCTTCACCTCTACATTTTGGACCTCTTTTTGAGTATCCTCGATAGAAGGTGAAGTGACGGTGTACCGGATGGTTAATTGATCTCATTGCTGGGTGACAGCCCGCTAGGACCAGGCAGCATCTTTGTATGGACCTGTACATGTAAC
modifications: Parechovirus F
B7: Parechovirus D (nucleic acid)
DNA: ACATGGGGCAGGTGTGCTGTGCCAAGAGCAACACTACGGTGGCCGAGCCGATGGTTCGTCACCACGTAGTAGGACTCCGTAGTGCTTGGTTACGGCGGACGTAAGTCAGTTGAGTGATGTCTAAGTGGCAAACCATGAGTACATGGTAACCTTGTGTGGACTCGCGGGACGGAATTTCCTATCCCATTGACTCCTTGTAGCAAGGTGGGTATACCCAACCACAATGGCAGCACCCTGGGTGGGAACCCAGGGGCCTGGATTAGTATCCAGTCACACAGCCTGATAGGGTGGCGGCTCAGCCACTGACCAGCGTCTCTAAATAATTGTGAGCTGTTCATGCACC
modifications: Parechovirus D
B8: Limnipivirus A (nucleic acid)
DNA: TTCTTTGGATATCCATTTAACGTGTACCCTATACGATAATTGGGGTGGATTCTGGATGCCTAGTTCCAGTGATTGGTTAAGAACTCGTTTACTACGTATAGTATGATTAGCAAAGTGCTCGATTGATCACGTAATGATCTATGTGGTTAAAAACCCAGTAGTATGGTATATACTCAGTAGTGTACACTGTGAGTACAACTCTTGGCGTAGAGAGAACAATTCACCCGAATCCGTGGCGTATCCATGGAAATAAGTTTACCTAATTGTATGTTACAAGGCATATGAGACATTTATGAGATATGGTTTATTTTGACTAAACGAGTGTAGAGGTGGTGGAGTCTATCCAACTTCAAGCCATGCAATTGTTGTGTTGATTGATATCATTGACCATTTTTGTGGATTGTGTACACATACAATTTGAAAATTAACCCCCTCAAGAATAAGACATGGGACCATTCGTGGTAGATACCGTGCTCGGATGCTTGAGATTAGATGGGTTAGACTAGTTTTGGAATGAGATTGCCGAGAAAGTCCCGCTAGACATGTTTTACAAGTCGTGGTATTCCGCTAGACTTTTTCGCAGACACATGGAAGGGTCCATGTGTTGTGCAATTGCAGGGTGACAGCCCAACTGCAGAGTTTTCCTTACTAGAATAAAAATCTGTTGTCAATTTT
modifications: Limnipivirus A
B9: Orivirus (nucleic acid, listed as Orivirus sp.)
DNA: GGTCCCAGGCCAATATTCTTCGTAAGGCTTGGTTCCAATTTTCCACCACTCGTGTTTGGGTTCTGGCCTATGGTACCCAGAGGGGCGGTTTGGGGGAATTAACTCCCCCTCCCCTGTGGTCCTATACCACCCCACACCTCTGTGGGCTTTCTTTACTATCTTCTTGTTTTCCGACTTTTAAACACTAGGCAGGCGCGCCTAGTCATACACCGCCCGGCTGGTCTTTCCAGCTCTTGTGGGCGGTGCGCGCTGGTCCATCGTGCCCAGCGACATAGCACCTTGTGGACACCTCCGAACGCCCTCCCCTGTATGGGGTGGTGCCCAGGGGTTTCAGTGTGGTGACACACTCCCTGGGGCCCGAAAGGCTAGTGTGCAACAGGTGAGGTACAGCCAGCTGCCCCCGTGGCTGGAGGGACCAAGCTTGTGAAGCACACCTCACCTTCTTGGGGGTGGGCTAGTAAGTGGTGAAAGCATAGTGTCCGTGTCGCTGGCCAACACTTTGGGTCAAGTCCAGCCACTCAGTGAGTAGATGCCCAGGAGGTACCCCTAGTGGATCTGACTTGGGGCCTGTTACTTAATGCAGGTTAAAAACTATGAAAGCTGAGTAGTGTAGCCCGGCTGGTGGCTTCTCTTCCTTATTCATTCTATTTTATGGTGACAAACGCAACTGAAGCC

The data set has as its system HEK293 cells. Format: cell-based, human. To be noted: luminescence from secreted Gluc in supernatant 24 hours after transfection of HEK293 cells; circular RNA encoding Gluc with the named IRES (UTR truncated to 675 nt).
B1 registered an Expression of 4.96E+05.
As to B2, the Expression was 1.24E+05.
Molecule B3 came in with an Expression of 8.01E+04.
As for B4, the figure is 1.35E+05.
Turning to B5, the Expression stood at 9.46E+04.
In the case of B6, the Expression stood at 6.56E+05.
The molecule B7 had an Expression of 3.10E+05.
Consider B8, for which the Expression was determined as 8.30E+04.
In turn, B9 came in with an Expression of 6.09E+05.
